Laboratory results as given in patent US20120114667A1 (AstraZeneca / MedImmune, published 2012).

How the values were obtained:
[1] = molecular target: T1, Macaque α5β1 (Macaque); experiment: FACS on macaque PBMC, 1 mM Mn2+
T1 construct: whole, on cells; macaque species not specified; also called monkey α5β1; monkey integrin
Method: To determine whether the antibodies cross reacted to monkey integrin, binding to purified Macaque T-cells was assessed. Macaque PBMCs were previously purified from whole blood, and stored frozen. Macaque PBMCs were suspended in adhesion buffer with HBSS 1% BSA and 1 mM Mn2+ (“FACS buffer”), at a concentration of 4.8×10⁵ live cells per ml. 12.5 uL of the primary antibody was added to 37.5 ul of cells, and incubated at 4° C. for 1 hour. Positive and negative controls were included as indicated. 100 uL of FACs buffer is added to dilute out primary antibody, the cells washed and resuspended in the appropriate secondary at 2 ug/mL (50 uL) with 10 ug/mL 7AAD, and stained on ice for 7 minutes. 100 uL of FACs buffer was added and cells were washed twice in FACS buffer, finally the supernatant removed and the cells were resuspended in 100 uL of buffer.
Samples were read on HTS FACS machine and analyzed using Cell Quest Pro software. The data shown in Table 7 confirm that the antibodies cross react with monkey α5β1.

[2] = molecular target: T2, β1 integrin chain on HT29 cells (α5 null line) (human, UniProt P05556 21-798); experiment: FACS on HT29 cells (no α5, β1 present)
T2 construct: whole, on cells; β1 is paired with alpha chains other than α5 on these cells; also called β1 chain; beta1
Method: To confirm the antibodies bind to the α5 chain or to the α5β1 heterodimer, binding to Human colon adenocarcinoma grade II cells (HT29 cells) was assessed by FACS. […] HT-29 cells were suspended in HBSS with 1% BSA and 1 mM final MnCL₂ at a concentration of 6×10⁵ cells/ml.12.5 uL of the primary antibody was added to 37.5 ul of cells and the plate incubated on ice for 60 minutes. A range of negative controls were included as described previously (indicated as below). In addition as a positive control antibodies to αvβ6 (Mab2077, Chemicon), α5β1 (Mab1909, Chemicon) and av (L230, Chemicon) were included. 100 uL of HBSS buffer was added to dilute primary antibody, the cells pelleted by centrifuging at 1500 rpm for 3 minutes and resuspended in 50 ul Goat anti-human IgG Fc Cy5 or Goat anti Mouse IgG Fc Cy5 secondary at 2 ug/mL. They were then incubated on ice for a further 7 minutes, and 100 uL of HBSS buffer was added to dilute secondary antibody. Finally cells were pelleted by centrifuging at 1500 rpm for 3 minutes, HBSS Buffer/secondary supernatant removed, washed twice in 100 ul of FACS buffer was added and the cells were resuspended and then read on a FACS Calibur HTS. Samples were analyzed using Cell Quest Pro software. The data is represented in Table 6 and confirm that the antibodies are selective for α5β1.

[3] = molecular target: T3, human α5β1 integrin (human, UniProt P08648 42-1049; P05556 21-798); experiment: FACS-based KD titration on K562 cells, 4 C, 5 h, 1 mM MgCl2 and 1 mM CaCl2
T3 construct: whole, on cells; also called a5b1; cellular α5β1
Method: To assess the affinity of the antibodies for α5β1, a FACS based KD analysis was employed. […] K562 cells expressing α5β1 were resuspended in filtered HBS buffer containing 1 mM MgCl₂ and 1 mM CaCl₂ at a concentration of approximately 2.5-6 million cells/mL. The cells were kept on ice. Serially diluted (2×) mAbs across 11 wells in a 96-well plate. All mAbs were diluted in HBS described above. Additional HBS and cells were added to each well so that the final volume was 300 μL/well and each well contained approximately 140,000-150,000 cells. The final molecular concentration range for each mAb was 3C5: 3.8 nM -7.5 μM; 5B11: 3.8 nM-7.3 μM. Cells were incubated on a plate shaker for 5 hours at 4° C. and then were spun/washed 3× at 4° C. with HBS. […] The Mean Fluorescence (F) of 7000 “events” was determined using FACS Canto II HTS flow cytometry instrumentation. To calculate affinity, data was fitted nonlinearly to a plot of the Mean Fluorescence as a function of molecular mAb concentration with Scientist 3.0 software using the equation:
In this equation, F=mean fluorescence, LT=total molecular mAb concentration, P′=proportionality constant that relates arbitrary fluorescence units to bound mAb, M=cellular concentration in molarity, n=number of receptors per cell, B=background signal, and KD=equilibrium dissociation constant. […]

[4] = molecular target: T4, α4β1 integrin on J6.77 Jurkat cells (UniProt P13612 34-1032; P05556 21-798); experiment: cell-based or functional assay
[5] = molecular target: T3, human α5β1 integrin; experiment: cell-based or functional assay
[6] = molecular target: T3, human α5β1 integrin; experiment: cell-based or functional assay; remark: listed apart in the source
[7] = molecular target: T4, α4β1 integrin on J6.77 Jurkat cells; experiment: cell-based or functional assay; remark: listed apart in the source
[8] = molecular target: T5, mouse α5β1 integrin (mouse, UniProt P11688 45-999; P09055 21-728, limits assumed); experiment: not described
T5 construct: printed only as mouse integrin / murine integrin; also called mouse integrin; murine integrin
T5 sequence (P11688 45-999 limits assumed, chain 1 of 2): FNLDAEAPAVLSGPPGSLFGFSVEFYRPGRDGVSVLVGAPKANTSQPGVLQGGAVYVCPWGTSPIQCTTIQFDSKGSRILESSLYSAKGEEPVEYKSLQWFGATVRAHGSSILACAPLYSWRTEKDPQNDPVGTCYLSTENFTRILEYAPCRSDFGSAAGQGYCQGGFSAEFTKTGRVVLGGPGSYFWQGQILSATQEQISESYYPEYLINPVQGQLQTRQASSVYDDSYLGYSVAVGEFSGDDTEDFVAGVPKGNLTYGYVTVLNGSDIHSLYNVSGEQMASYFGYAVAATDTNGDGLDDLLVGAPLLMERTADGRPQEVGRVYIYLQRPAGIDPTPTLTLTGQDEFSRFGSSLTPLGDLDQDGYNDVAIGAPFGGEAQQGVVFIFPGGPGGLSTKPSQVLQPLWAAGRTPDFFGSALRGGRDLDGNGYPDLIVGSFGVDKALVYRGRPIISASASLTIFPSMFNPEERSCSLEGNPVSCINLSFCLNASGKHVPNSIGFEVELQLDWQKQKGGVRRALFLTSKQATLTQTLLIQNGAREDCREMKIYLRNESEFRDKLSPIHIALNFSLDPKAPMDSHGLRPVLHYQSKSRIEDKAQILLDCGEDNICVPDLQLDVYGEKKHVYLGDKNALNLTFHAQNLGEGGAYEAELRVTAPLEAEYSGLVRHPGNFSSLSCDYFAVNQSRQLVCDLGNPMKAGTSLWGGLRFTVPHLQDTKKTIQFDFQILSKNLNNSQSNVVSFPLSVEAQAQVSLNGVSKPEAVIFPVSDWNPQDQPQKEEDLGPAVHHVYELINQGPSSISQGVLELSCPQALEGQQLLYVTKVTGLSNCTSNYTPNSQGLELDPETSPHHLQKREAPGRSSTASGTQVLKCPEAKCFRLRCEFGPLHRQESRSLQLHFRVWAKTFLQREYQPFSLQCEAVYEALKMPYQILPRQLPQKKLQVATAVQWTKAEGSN
T5 sequence (P09055 21-728 limits assumed, chain 2 of 2): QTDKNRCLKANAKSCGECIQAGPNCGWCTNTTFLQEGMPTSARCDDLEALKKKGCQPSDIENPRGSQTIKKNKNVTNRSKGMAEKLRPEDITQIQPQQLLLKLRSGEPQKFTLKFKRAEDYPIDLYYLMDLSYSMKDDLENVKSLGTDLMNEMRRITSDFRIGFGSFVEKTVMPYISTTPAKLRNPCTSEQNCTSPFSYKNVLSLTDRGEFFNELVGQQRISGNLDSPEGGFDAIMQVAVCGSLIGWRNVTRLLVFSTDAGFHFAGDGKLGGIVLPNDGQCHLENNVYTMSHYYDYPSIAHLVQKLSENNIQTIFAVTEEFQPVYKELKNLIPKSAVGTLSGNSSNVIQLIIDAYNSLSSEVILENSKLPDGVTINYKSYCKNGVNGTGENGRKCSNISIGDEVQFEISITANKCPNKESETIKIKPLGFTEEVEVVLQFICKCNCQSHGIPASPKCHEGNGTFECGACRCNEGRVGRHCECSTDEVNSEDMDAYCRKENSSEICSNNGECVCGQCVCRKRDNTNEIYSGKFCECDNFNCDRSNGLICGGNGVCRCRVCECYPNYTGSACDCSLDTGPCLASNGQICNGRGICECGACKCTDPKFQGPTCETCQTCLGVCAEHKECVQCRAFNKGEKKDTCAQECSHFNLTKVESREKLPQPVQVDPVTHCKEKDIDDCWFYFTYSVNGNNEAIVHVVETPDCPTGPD

T3 sequence (P08648 42-1049, chain 1 of 2): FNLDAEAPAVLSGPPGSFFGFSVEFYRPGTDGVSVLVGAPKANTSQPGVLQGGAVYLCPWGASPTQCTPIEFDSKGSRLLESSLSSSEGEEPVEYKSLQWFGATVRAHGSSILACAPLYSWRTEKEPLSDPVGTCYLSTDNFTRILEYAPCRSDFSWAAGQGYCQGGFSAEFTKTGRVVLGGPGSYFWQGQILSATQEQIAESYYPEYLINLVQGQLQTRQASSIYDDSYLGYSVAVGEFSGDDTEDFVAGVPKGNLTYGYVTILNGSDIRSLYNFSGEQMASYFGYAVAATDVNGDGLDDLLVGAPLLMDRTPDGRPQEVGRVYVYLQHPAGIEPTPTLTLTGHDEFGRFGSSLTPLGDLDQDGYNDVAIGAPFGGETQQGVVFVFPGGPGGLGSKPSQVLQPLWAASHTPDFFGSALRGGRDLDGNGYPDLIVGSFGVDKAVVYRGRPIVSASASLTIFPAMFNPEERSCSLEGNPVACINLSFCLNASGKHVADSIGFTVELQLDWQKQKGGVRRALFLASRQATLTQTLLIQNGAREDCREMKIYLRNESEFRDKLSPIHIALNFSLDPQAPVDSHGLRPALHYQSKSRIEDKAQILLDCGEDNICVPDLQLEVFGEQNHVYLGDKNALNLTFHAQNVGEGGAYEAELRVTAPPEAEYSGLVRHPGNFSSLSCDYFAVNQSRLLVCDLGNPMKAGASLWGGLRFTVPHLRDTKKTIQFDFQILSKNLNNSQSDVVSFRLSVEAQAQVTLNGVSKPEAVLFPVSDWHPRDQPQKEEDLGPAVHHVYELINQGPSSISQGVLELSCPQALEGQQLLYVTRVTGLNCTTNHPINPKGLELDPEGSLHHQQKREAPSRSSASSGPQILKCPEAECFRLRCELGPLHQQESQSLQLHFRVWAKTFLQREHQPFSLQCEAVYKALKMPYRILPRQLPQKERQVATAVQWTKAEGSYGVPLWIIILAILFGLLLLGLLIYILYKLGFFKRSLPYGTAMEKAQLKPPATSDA
T3 sequence (P05556 21-798, chain 2 of 2): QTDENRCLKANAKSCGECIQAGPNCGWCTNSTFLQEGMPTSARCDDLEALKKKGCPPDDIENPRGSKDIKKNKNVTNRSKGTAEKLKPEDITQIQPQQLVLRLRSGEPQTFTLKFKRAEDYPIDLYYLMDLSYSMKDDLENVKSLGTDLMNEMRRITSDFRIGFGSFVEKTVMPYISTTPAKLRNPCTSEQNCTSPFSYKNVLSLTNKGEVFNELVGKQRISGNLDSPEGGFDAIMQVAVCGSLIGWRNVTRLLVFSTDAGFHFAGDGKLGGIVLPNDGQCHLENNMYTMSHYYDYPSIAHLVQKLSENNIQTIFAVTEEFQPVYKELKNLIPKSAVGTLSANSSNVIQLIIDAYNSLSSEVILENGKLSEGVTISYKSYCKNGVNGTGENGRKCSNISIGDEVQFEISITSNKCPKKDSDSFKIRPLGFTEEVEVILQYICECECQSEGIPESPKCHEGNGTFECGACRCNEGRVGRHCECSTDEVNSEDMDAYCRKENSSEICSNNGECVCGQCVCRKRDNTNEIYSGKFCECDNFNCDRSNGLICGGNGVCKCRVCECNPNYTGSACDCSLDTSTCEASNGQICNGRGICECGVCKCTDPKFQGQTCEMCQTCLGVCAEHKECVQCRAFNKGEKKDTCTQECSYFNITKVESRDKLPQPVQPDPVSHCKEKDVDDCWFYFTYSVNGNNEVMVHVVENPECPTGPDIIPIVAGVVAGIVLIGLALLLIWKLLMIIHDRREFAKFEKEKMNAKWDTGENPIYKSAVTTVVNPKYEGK
T2 sequence (P05556 21-798): as the sequence (P05556 21-798, chain 2 of 2) above
T4 sequence (P13612 34-1032, chain 1 of 2): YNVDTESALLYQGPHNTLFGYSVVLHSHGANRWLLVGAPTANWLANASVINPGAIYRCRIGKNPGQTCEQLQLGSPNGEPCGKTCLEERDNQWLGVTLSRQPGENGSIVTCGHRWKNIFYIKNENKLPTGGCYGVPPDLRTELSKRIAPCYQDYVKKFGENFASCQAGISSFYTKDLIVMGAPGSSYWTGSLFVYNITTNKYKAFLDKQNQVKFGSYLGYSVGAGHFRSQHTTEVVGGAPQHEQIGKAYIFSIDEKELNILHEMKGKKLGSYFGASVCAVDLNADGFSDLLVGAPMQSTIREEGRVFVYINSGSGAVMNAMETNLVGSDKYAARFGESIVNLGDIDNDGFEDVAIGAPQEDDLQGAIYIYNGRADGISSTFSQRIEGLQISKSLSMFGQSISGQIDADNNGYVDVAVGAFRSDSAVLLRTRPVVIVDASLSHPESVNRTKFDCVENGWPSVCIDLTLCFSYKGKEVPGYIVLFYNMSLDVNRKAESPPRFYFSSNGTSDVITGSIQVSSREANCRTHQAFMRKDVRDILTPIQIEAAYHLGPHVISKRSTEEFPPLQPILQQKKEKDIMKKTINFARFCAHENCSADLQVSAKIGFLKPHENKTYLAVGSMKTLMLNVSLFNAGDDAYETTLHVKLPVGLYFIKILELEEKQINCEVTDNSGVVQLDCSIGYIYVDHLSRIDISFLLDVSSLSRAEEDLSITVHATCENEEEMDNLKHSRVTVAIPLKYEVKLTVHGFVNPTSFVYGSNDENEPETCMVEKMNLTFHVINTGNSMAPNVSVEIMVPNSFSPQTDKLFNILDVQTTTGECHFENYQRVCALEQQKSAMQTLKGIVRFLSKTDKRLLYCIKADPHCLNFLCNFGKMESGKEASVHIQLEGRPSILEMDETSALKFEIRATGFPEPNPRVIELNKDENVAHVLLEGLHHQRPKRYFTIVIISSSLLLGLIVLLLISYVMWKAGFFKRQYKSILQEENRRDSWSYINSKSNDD
T4 sequence (P05556 21-798, chain 2 of 2): as the sequence (P05556 21-798, chain 2 of 2) above

B1: 5B11 (antibody, IgG2, V domains shown)
VH: QVQLVESGGGVVQPGRSVRLSCAASGFTFSSYGMHWVRQTPGKGLEWVAIIWYDGGIEYYADSVKGRFTISRDNSKNTLYLQMNSLRAEDTAVYYCARDHRYGSSWFDYWGQGTLVTVSS
VL: DIQMTQSPSSLSASVGDRVTITCRASQGINNYLAWFQQKPGKAPKSLIYAASSLQSGVPSNFSGSGSGTDFTLSISSLQPEDFATYYCQQYKSYPLTFGGGTKVEIR
notes: also called MAb 5B11; mAb 5B11
Geo Mean on Macaque T-cells IgG detection [1]: 12 | Binding Geomean [2]: 4.62 | binding result [2]: no binding | Kd [3]: 34.7 pM | Average % inhibition at 5 ug/ml (J6 adhesion to GST-CS-1) [4]: -9% | IC50 ng/mL (K562 adhesion to GST-FNIII(9-10)) [5]: 28.4 ng/mL | % Inhibition of cell adhesion n = 1 (K562 on full length FN) [6]: 96% | % Inhibition of cell adhesion n = 2 (K562 on full length FN) [6]: 98% | % Inhibition of cell adhesion n = 3 (K562 on GST-FNIII(9-10), no pre-incubation) [6]: 90% | % Inhibition of cell adhesion n = 4 (K562 on GST-FNIII(9-10), supernatant 1 in 10) [6]: 97% | % Inhibition of cell adhesion n = 5 (K562 on GST-FNIII(9-10), supernatant 1 in 10) [6]: 102% | % Inhibition of adhesion CS1 n = 1 (J6.77 Jurkat on GST-CS-1) [7]: 27% | % Inhibition of adhesion CS1 n = 2 (J6.77 Jurkat on GST-CS-1) [7]: -15%

B2: 3C5 (antibody, IgG2, V domains shown)
VH: RVQLQESGPGLVKPSQTLSLTCTVSGGSIISGGYFWTWIRQHPGKGLEWIGYIYYSGSTYYSPSLKSRVTISVDTSKNQFSLKLSSVTAADTAVYYCTRAVPAAKGYYSYYGMDVWGQGTTVTVSS
VL: DIVMTQSPLSLPVTPGEPASISCRSSQSLLHSSGYNYLDWFLQKPGQSPQLLIYLSSNRASGVPDRFSGSGSGTDFTLKISRVEAEDVGVYYCMQALQTPFTFGPGTKVDIK
notes: also called MAb 3C5; mAb 3C5
Geo Mean on Macaque T-cells IgG detection [1]: 16 | Binding Geomean [2]: 4.04 | binding result [2]: no binding | Kd [3]: 14.7 pM | Average % inhibition at 5 ug/ml (J6 adhesion to GST-CS-1) [4]: 0% | binding result [8]: no binding | IC50 ng/mL (K562 adhesion to GST-FNIII(9-10)) [5]: 12.4 ng/mL | % Inhibition of cell adhesion n = 1 (K562 on full length FN) [6]: 97% | % Inhibition of cell adhesion n = 2 (K562 on full length FN) [6]: 96% | % Inhibition of cell adhesion n = 3 (K562 on GST-FNIII(9-10), no pre-incubation) [6]: 99% | % Inhibition of cell adhesion n = 4 (K562 on GST-FNIII(9-10), supernatant 1 in 10) [6]: 97% | % Inhibition of cell adhesion n = 5 (K562 on GST-FNIII(9-10), supernatant 1 in 10) [6]: 104% | % Inhibition of adhesion CS1 n = 1 (J6.77 Jurkat on GST-CS-1) [7]: 24% | % Inhibition of adhesion CS1 n = 2 (J6.77 Jurkat on GST-CS-1) [7]: -4%
